From patent US20120277142A1 (HANALL BIOPHARMA, published 2012)
Residue numbers refer to the chain shown, from its start.

B1: TNFRI105-S31 (receptor)
chain: MDSVCPQGKYIHPQNNSICCTKCHKGTYVYNDCPGPGQDTDCRECESGSFTAIENFLPACLSCSKCRKEMGQVEISSCTVDRDTVCGCRKNQYRHYWSENLFQCFN
notes: Met-TNFRI105 superlead mutant made in E. coli
B2: TNFRI105-S41 (receptor)
chain: B1 chain with I53H
notes: as for B1
B3: Met-TNFRI105 (receptor)
chain: B1 chain with V29L, I53S, F56H, P58R, A59H
notes: also called Wild-type (TNFRI105)
B4: TNFRI105-S47 (receptor)
chain: B1 chain with I53M, A59G
notes: as for B1
B5: TNFRI105-S36 (receptor)
chain: B1 chain with I53M
notes: as for B1
B6: TNFRI105-S46 (receptor)
chain: B1 chain with A59G
notes: as for B1
B7: Met-TNFRI171 (receptor)
chain: MDSVCPQGKYIHPQNNSICCTKCHKGTYLYNDCPGPGQDTDCRECESGSFTASENHLRHCLSCSKCRKEMGQVEISSCTVDRDTVCGCRKNQYRHYWSENLFQCFNCSLCLNGTVHLSCQEKQNTVCTCHAGFFLRENECVSCSNCKKSLECTKLCLPQIENVKGTEDSGTT
notes: also called Wild-type (TNFRI171); wild-type TNFRI

Tests used:
[1] = target: T1, TNF-α (UniProt P01375 77-233, limits assumed); assay: competition ELISA: sample vs plate-bound TNFRI190 for TNF-α, from IC50, relative to wild-type TNFRI105
T1 construct: also called tumor necrosis factor; ligand
Description: (§1) Each well was washed three times with 300 μL of washing buffer (0.05% Tween-20, PBS, pH 7.4) and incubated at room temperature for 2 hours with 300 μL of a blocking buffer (5% skim milk, PBS, pH 7.4). Then, each well was washed as mentioned above. A sample of interest was diluted to concentrations of 500 nM, 125 nM, 31 nM, 7.8 nM, 1.9 nM, 0.48 nM, 0.12 nM, and 0.03 nM in series and loaded in an amount of 100 μL into each well in duplicate. To each well was added 100 μL of 50 ng/ml TNF-α, followed by incubation at room temperature for 2 hours. After the wells were washed with a washing buffer, 100 μg/mL anti-TNF-α antibody solution was diluted 1/1000, added in an amount of 100 μL per each well, and incubated at room temperature for 2 hours. After the plates were washed with a washing buffer, a substrate was added in an amount of 100 μL to each well and reacted at room temperature for 15 min. In each well, 100 μL of the substrate 3,3′,5,5′-tetramethylbenzidine (RnD, Cat. No: DY999) was reacted at room temperature for 15 min, followed by adding 50 μL of 1.0 M sulfuric acid (Samchun Chemical, Cat. No: 52129) to each well to stop the reaction.
(§2) The affinity of the Met-TNFRI for TNF-α was assayed using the same procedure as in [Experimental Example 1]

[2] = target: T1, TNF-α; assay: competition ELISA: sample vs plate-bound TNFRI190 for TNF-α, from IC50, relative to wild-type TNFRI171
Description: as §1, §2

[3] = target: T1, TNF-α; assay: cell-based or functional assay

Row | Binder | Relative Affinity for Ligand (%) [1] [%] | Relative Affinity for Ligand (%) [2] [%] | Relative Activity (Cytotoxicity-neutralizing activity) (fold) [3] [fold]
1 | B1 | 453 | – | –
2 | B2 | 403 | – | –
3 | B3 | 100 | – | –
4 | B4 | 497 | – | –
5 | B5 | 459 | – | –
6 | B6 | 547 | – | –
7 | B7 | – | 100 | 1
